Results reported in patent US20260097134A1, “COMPOSITIONS AND METHODS FOR PRECISE EDITING OF HUMAN DYSTROPHIN” (Mammoth Biosciences, Inc., priority 2023, published 2026).
Changes are numbered by the printed parent chain. Numbers in names are those of the source.

B1: CasPhi.12 L26R: variant of CasPhi.12, SEQ ID NO: 1603; delivered encoded in AAV9-4A vectors PL26297 or PL31718 (protein)
chain: MIKPTVSQFLTPGFKLIRNHSRTAGRKLKNEGEEACKKFVRENEIPKDECPNFQGGPAIANIIAKSREFTEWEIYQSSLAIQEVIFTLPKDKLPEPILKEEWRAQWLSEHGLDTVPYKEAAGLNLIIKNAVNTYKGVQVKVDNKNKNNLAKINRKNEIAKLNGEQEISFEEIKAFDDKGYLLQKPSPNKSIYCYQSVSPKPFITSKYHNVNLPEEYIGYYRKSNEPIVSPYQFDRLRIPIGEPGYVPKWQYTFLSKKENKRRKLSKRIKNVSPILGIICIKKDWCVFDMRGLLRTNHWKKYHKPTDSINDLFDYFTGDPVIDTKANVVRFRYKMENGIVNYKPVREKKGKELLENICDQNGSCKLATVDVGQNNPVAIGLFELKKVNGELTKTLISRHPTPIDFCNKITAYRERYDKLESSIKLDAIKQLTSEQKIEVDNYNNNFTPQNTKQIVCSKLNINPNDLPWDKMISGTHFISEKAQVSNKSEIYFTSTDKGKTKDVMKSDYKWFQDYKPKLSKEVRDALSDIEWRLRRESLEFNKLSKSREQDARQLANWISSMCDVIGIENLVKKNNFFGGSGKREPGWDNFYKPKKENRWWINAIHKALTELSQNKGKRVILLPAMRTSITCPKCKYCDSKNRNGEKFNCLKCGIELNADIDVATENLATVAITAQSMPKPTCERSGDAKKPVRARKAKAPEFHDKLAPSYTVVLREAV
B2: CasPhi.12 L26R, I471T, S223P, D703G: CasPhi.12 engineered variant, SEQ ID NO: 1607 (protein)
chain: B1 chain with S223P, I471T, D703G
B3: CasM.265466 D220R: variant of CasM.265466, SEQ ID NO: 1602; delivered encoded in AAV9-4A vectors PL31719, PL31720, PL31721 (protein)
chain: MSVLTRKVQLIPVGDKEERDRVYKYLRDGIEAQNRAMNLYMSGLYFAAINEASKEDRKELNQLYSRIATSSKGSAYTTDIEFPTGLASTSTLSMAVRQDFTKSLKDGLMYGRVSLPTYRKDNPLFVDVRFVALRGTKQKYNGLYHEYKSHTEFLDNLYSSDLKVYIKFANDITFQVIFGNPRKSSALRSEFQNIFEEYYKVCQSSIQFSGTKIILNMAMRIPDKEIELDEDVCVGVDLGIAIPAVCALNKNRYSRVSIGSKEDFLRVRTKIRNQRKRLQTNLKSSNGGHGRKKKMKPMDRFRDYEANWVQNYNHYVSRQVVDFAVKNKAKYINLENLEGIRDDVKNEWLLSNWSYYQLQQYITYKAKTYGIEVRKINPYHTSQRCSCCGYEDAGNRPKKEKGQAYFKCLKCGEEMNADFNAARNIAMSTEFQSGKKTKKQKKEQHENK

Experiments:
mouse PCSK9 gene = assay: In vivo editing of PCSK9 in muscle tissues via AAV9-4A delivery of CasPhi.12 and CasM.265466 variants, indels by NGS; design: species or system C57BL/6J mice; conditions: for inducing indels in vivo at the PCSK9 locus across different muscle tissues: summary in words
Description: The purpose of the study was to assess the capability of two effector protein variants, CasPhi.12 L26R (a variant of CasPhi.12) and CasM.265466 D220R (a variant of CasM.265466), to edit nucleic acid sequences within muscle tissues in vivo. The study focused on PCSK9 as an exemplary gene target.
In this study, an AAV9-4A vector was employed as the delivery vehicle for introducing the effector protein and gRNA into the specific target tissues. The DNA encoding the effector protein (e.g., SaCas9, CasPhi.12 L26R, or CasM.265466 D220R) and its corresponding promoter (e.g., ck8e or spc5), along with the DNA encoding the gRNA containing the targeting spacer sequence specific to PCSK9 (referred to as PCSK9 in the plasmid) and its u6 promoter were cloned into the AAV9-4A plasmid between the AAV inverted terminal repeats (ITRs), creating AAV9 constructs as follows: • 1) pssAAV-ITR-u6-PCSK9-ck8e-saCas9-bGHpolya-ITR (PL26295) • 2) pssAAV-ITR-u6-PCSK9-ck8e-L26R-wpre-hGHpolya-ITR (PL26297) • 3) pssAAV-ITR-u6-PCSK9-spc5-12-L26R-wpre-hGHpolya-ITR (PL31718) • 4) pssAAV-ITR-u6-PCSK9-ck8e-D220R-wpre-hGHpolya-ITR (PL31719) • 5) pssAAV-ITR-u6-PCSK9-spc5-12-D220R-wpre-hGHpolya-ITR (PL31720) • 6) pscAAV-ITR-u6-PCSK9-Spc5-12-D220R-HSVpolyA-ITR (PL31721)
The sequences of the gRNA designed for use in conjunction with SaCas9, CasPhi.12 L26R, or CasM.265466 D220R for targeting the mouse PCSK9 gene are provided in TABLE 14.
6-week old male C57BL/6J mice were given a single intravenous (IV) bolus through the tail vein using a 1.0 cc syringe with a 27G-⅝″ needle or a single intramuscular (IM) bolus into the gastrocnemius.
4 weeks after the treatment, the mice were euthanized for assessment. Before collecting the tissues, the mice underwent whole-body perfusion via the left ventricle using 5.0-10.0 mL of PBS to remove any remaining blood from the tissues. Tissue samples weighing 100 mg were then dissected from the liver, heart, gastrocnemius, diaphragm, pectoral, and masseter, respectively, and placed on a plate for subsequent Next-Generation Sequencing (NGS) analysis. For the intramuscular (IM) groups, both the left and right gastrocnemius were weighed and harvested. For all other groups, only the left gastrocnemius was weighed and harvested.
The genomic DNA isolated from the muscle tissues was subject to NGS and aligned to a reference DNA sequence for the analysis of insertions or deletions (indels).

DMD = DMD exon precise editing in HEK293T cells with CasPhi.12 engineered variant, MCP-RT and retRNA, Amplicon Sequencing; format: cell-based, human; conditions: MCP-RT SEQ ID NO: 1608, retRNA SEQ ID NO: 1590, guide SEQ ID NO: 1327, 72 hours
Description: HEK293T cells were transfected with plasmids encoding effector protein CasPhi.12 L26R, I471T, S223P, D703G (SEQ ID NO: 1607), a reverse transcriptase (RT) (SEQ ID NO: 1608), a retRNA (SEQ ID NO: 1590), and a guide nucleic acid targeting DMD (SEQ ID NO: 1327). The effector protein was not linked to the RT, but the RT was fused to an MS2 coat protein (MCP) capable of binding an MS2 aptamer loop in the retRNA. Cells were harvested 72 hours later and cell lysates were prepared for Amplicon Sequencing. The percentage of reads containing precise edits were analyzed.

Molecule | indel rate in the PCSK9 gene (mouse PCSK9 gene; heart, PL26297 vector, IV administration, 4 weeks after treatment) | indel rate in the PCSK9 gene (mouse PCSK9 gene; heart, PL31718 vector, IV administration, 4 weeks after treatment) | indel rate in the PCSK9 gene (mouse PCSK9 gene; masseter, PL26297 vector, IM administration, 4 weeks after treatment) | indel rate in the PCSK9 gene (mouse PCSK9 gene; right gastrocnemius, PL26297 vector, IM administration, 4 weeks after treatment) | inducing indels in vivo at the PCSK9 locus across different muscle tissues (mouse PCSK9 gene) | precise editing, average (percentage of reads containing precise edits) (DMD) [%] | precise editing, one replicate (DMD) [%] | indel rate (mouse PCSK9 gene; diaphragm, PL31719 vector, IV administration, 4 weeks after treatment) | indel rate (mouse PCSK9 gene; heart, PL31719 vector, IV administration, 4 weeks after treatment) | indel rate (mouse PCSK9 gene; heart, second statement ('Additionally'), vector PL31719, IV administration) | fold greater indel rate in the heart compared to SaCas9 (mouse PCSK9 gene; heart, versus SaCas9 delivered in the PL26295 vector via IV administration) | indel rate (mouse PCSK9 gene; left gastrocnemius, PL31719 vector, IV administration, 4 weeks after treatment) | indel rate (mouse PCSK9 gene; left gastrocnemius, second statement ('Additionally'), vector PL31719, IV administration) | indel rate (mouse PCSK9 gene; liver, PL31719 vector, IV administration, 4 weeks after treatment) | indel rate (mouse PCSK9 gene; masseter, PL31719 vector, IV administration, 4 weeks after treatment) | indel rate (mouse PCSK9 gene; pectoral, PL31719 vector, IV administration, 4 weeks after treatment) | indel rate (mouse PCSK9 gene; pectoral, second statement ('Additionally'), vector PL31719, IV administration)
B1 | about 8% | about 8% | about 3% | about 5% | highly efficient |  |  |  |  |  |  |  |  |  |  |  | 
B2 |  |  |  |  |  | 1.6 | 2.1 |  |  |  |  |  |  |  |  |  | 
B3 |  |  |  |  | highly efficient |  |  | about 10% | about 20% | about 11% | approximately 2 fold | about 15% | about 10% | about 25% | about 5% | about 13% | about 3%
